Laboratory results published in patent US10829528B2, “Therapeutic agents for neurological and psychiatric disorders” (VIB VZW, priority 2016, dated 2020).

Key:
[1] = system: cultured hippocampal neurons; assay: FM1-43 dye labeling of presynaptic vesicle recycling; type: cell-based, mouse
Experimental: We assessed the effect of sAPPα on synaptic vesicle recycling (ref6) using the activity-dependent dye FM1-43. We measured density (D) and intensity (ΔF) of FM1-43 uptake in presynaptic vesicles turned over by stimulation of 30 action potentials (APs) at a rate of 1 Hz in cultured hippocampal neurons.
The experiments were performed in mature (15-28 days in vitro) cultures. Hippocampal neurons were imaged using a FV1000 spectral Olympus confocal microscope using a 60×1.2 NA water immersion objective. The experiments were conducted at room temperature in extracellular Tyrode solution containing (in mM): NaCl, 145; KCl, 3; glucose, 15; HEPES, 10; MgCl2, 1.2; CaCl2), 1.2; pH adjusted to 7.4 with NaOH. For FM-based imaging and analysis, activity-dependent FM1-43 (10 μM) styryl dye was used to estimate basal synaptic vesicle recycling using previously described protocol48. Briefly, action potentials were elicited by passing 50 mA constant current for 1 ms through two platinum wires, separated by ˜7 mm and close to the surface of the coverslip. The extracellular medium contained non-selective blocker of glutamate receptors (0.5 mM kynurenic acid) to block recurrent neuronal activity. 30 stimuli at 1 Hz were applied during FM1-43 loading, while 800 stimuli at 2 Hz during unloading. The fluorescence of individual synapses was determined from the difference between images obtained after staining and after destining (ΔF). Detection of signals was done using custom-written scripts in MATLAB (Mathworks) as described before48.

[2] = system: Schaffer collateral (SC) synapses in mouse hippocampus; assay: fEPSP field recordings at Schaffer collateral synapses in hippocampal slices; type: cell-based
Experimental: We assessed the effect of sAPPα on the synaptic properties of Schaffer collateral (SC) synapses in mouse hippocampus. […] As change in probability of neurotransmitter release inversely correlates with a change in short-term facilitation, we applied a burst of 5 stimuli at 3 different frequencies (20, 50, and 100 Hz) to induce short-term facilitation at the SC. […] Preincubation with the GABABR antagonist CGP54626 (CGP, 10 μM) for 20 min before the incubation with sAPPα blocked its effects on the peak amplitude of the fESPS and the input/output slopes (FIG. 10f-g). Accordingly, CGP occluded sAPPα-induced augmentation of short-term facilitation at 20, 50, and 100 Hz burst frequencies (FIG. 10h-j).
On the day of recording the brain of a 2-month-old Balb/c male mouse was quickly removed and 400 μm-thick horizontal slices were prepared in an ice-cold oxygenated buffer containing (in mM): sucrose, 182; KCl, 2.5; MgSO4, 2; NaH2PO4, 1.25; NaHCO3, 25; CaCl2), 0.8; MgCl2, 5; glucose, 25; ascorbate, 1; HEPES, 20. The slicing procedure was performed using a Leica VT1200 vibrating microtome. Slices were then transferred to a submerged recovery chamber at room temperature containing oxygenated (95% 02 and 5% C02) storage artificial cerebrospinal fluid (ACSF) for 30 min before the incubations (see below). The storage ACSF contained, in mM: NaCl, 100; KCl, 2.5; MgSO4, 2; NaH2PO4, 1.25; NaHCO3, 25; CaCl2), 1.2; MgCl2, 3; glucose, 20; ascorbate, 1; sodium pyruvate,3 and HEPES, 20. The slices were incubated in the incubation chambers perfused with oxygenated storage ACSF containing the experimental agents for 90 min before performing field recordings: In the incubation chamber, control slices were perfused with normal storage ACSF while sAPPα slices were perfused with storage ACSF containing 1 μM sAPPα. CGP slices were perfused with storage ACSF containing 10 μM CGP54626 (Tocris). CGP+sAPPα slices were preincubated in the chamber perfused with ACSF+CGP before being transferred into the chamber perfused with storage ACSF implemented with 10 μM CGP54626+1 μM sAPPα. All recordings were performed at 32-33° C. in a recording chamber perfused with ACSF (4 ml/min) on the stage of an Olympus BX51WI microscope equipped with IR optics and oblique illumination. Recording ACSF contains, in mM: NaCl, 129; KCl, 2.5; CaCl2), 1.2; MgCl2, 1.2; NaHCO3, 25; NaH2PO4, 1.25; glucose, 15. Stimulation of the Schaffer-collateral was delivered through a glass suction electrode (10-20 μm tip) filled with ACSF. fEPSPs were recorded using a glass pipette containing ACSF (1-2 MΩ) from proximal synapses in the CA1 stratum radiatum. Field recording experiments were analyzed using Clampfit.

B1: sAPPα: soluble amyloid precursor protein α ectodomain; mouse APP695 18-612aa, Fc tag cleaved (protein)
chain: LEVPTDGNAGLLAEPQIAMFCGKLNMHMNVQNGKWESDPSGTKTCIGTKEGILQYCQEVYPELQITNVVEANQPVTIQNWCKRGRKQCKTHTHIVIPYRCLVGEFVSDALLVPDKCKFLHQERMDVCETHLHWHTVAKETCSEKSTNLHDYGMLLPCGIDKFRGVEFVCCPLAEESDSVDSADAEEDDSDVWWGGADTDYADGGEDKVVEVAEEEEVADVEEEEADDDEDVEDGDEVEEEAEEPYEEATERTTSTATTTTTTTESVEEVVRVPTTAASTPDAVDKYLETPGDENEHAHFQKAKERLEAKHRERMSQVMREWEEAERQAKNLPKADKKAVIQHFQEKVESLEQEAANERQQLVETHMARVEAMLNDRRRLALENYITALQAVPPRPHHVFNMLKKYVRAEQKDRQHTLKHFEHVRMVDPKKAAQIRSQVMTHLRVIYERMNQSLSLLYNVPAVAEEIQDEVDELLQKEQNYSDDVLANMISEPRISYGNDALMPSLTETKTTVELLPVNGEFSLDDLQPWHPFGVDSVPANTENEVEPVDARPAADRGLTTRPGSGLTNIKTEEISEVKMDAEFGHDSGFEVRHQK
reduction of total presynaptic strength (S=ΔF×D) ([1]; 1 μM, 15 min after addition, 30 APs at 1 Hz): 57% | effect on presynaptic vesicle recycling (in words) ([1]; FM1-43, sAPPαΔExD at 1 μM): dose dependent manner | effect on fEPSP amplitude ([2]; 1 μM sAPPα incubation, 0.1 Hz stimulation): reducing fEPSP amplitude | decrease in the slope of the input/output curve ([2]; 1 μM sAPPα incubation, 0.1 Hz stimulation, 30-150 μA): 23% | short-term facilitation versus control slices ([2]; burst of 5 stimuli at 20, 50 and 100 Hz, 1 μM sAPPα): significantly higher
